From PMC8528238 (Nature, 2021)

B1: DH1047 antigen binding fragment (Fab) (Fab, V domains shown)
VH: QVQLVQSGAEVKKPGASVQVSCQASANTFTNHYIHWVRQAPGQGLEWMGIIYPTGGNTIYAQGFQGRVTMTRDTSLNTIYLELSSLRSEDTAVYYCARDVRVDDSWSGYDLLSGGTYFDYWGQGTLVTVSS
VL: not shown
B2: DH1041, SARS-CoV-2-specific ACE2-binding site-focused RBD neutralizing antibody (antibody, V domains shown)
VH: EVQLVESGGGLVQPGGSLRLSCAASGVTFSSYWMSWVRQAPGKGLEWVANIRQDGSEKYSVDSVKGRFTISRDNAKNSLYLQMNSLRAEDTAVYYCARARRADNSGYYGFHFDCWGQGTLVTVSS
VL: QSVLTQPPSVSGAPGQRVTISCTGSSSNIGAGYDVHWYQQLPGTAPKLLIYGNNNRPSGVPDRFSDSKSGTSASLAITRLQAEDEADYYCQSYDSSLSGWVFGGGTKLTVL

How the values were obtained:
[1] = target: T1, monomeric SARS-CoV-2 RBD (wildtype Spike RBD monomer) (SARS-CoV-2, Wuhan strain, UniProt P0DTC2); assay: SPR
[2] = target: T1, monomeric SARS-CoV-2 RBD (wildtype …); assay: ELISA
[3] = target: SARS-CoV-2 RBD sortase A conjugated nanoparticle (24-mer SARS-CoV-2 RBD-ferritin nanoparticle) (SARS-CoV-2, Wuhan strain, UniProt P0DTC2); assay: BLI

| Binder | Kd [1] [pM] | binding result [2] | binding result [3] |
| --- | --- | --- | --- |
| B1 | < 20 |  |  |
| B2 |  | binds | binds |
